± gives the uncertainty stated by the source.
Assay: protein stability index of a GFP-peptide fusion (yeast GPS) (PSI 1-4); higher = more stable; sorted into four equal gates, so the index is relative within each strain
How it was run: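 The protein stability index combines read frequencies across sorting gates, each weighted by its gate number and then summed. To obtain those frequencies, a pooled yeast library of GFP fusions to tiled 17-residue yeast protein peptides, on a plasmid also expressing Cherry, was grown to mid-log phase in leucine-free medium. The cells were sorted into four equal gates by GFP/Cherry ratio before plasmid amplification by PCR and Illumina sequencing.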

Row | Sequence | protein stability index (doa10∆) | protein stability index (pdr5∆) | protein stability index (san1∆) | protein stability index (ubr1∆)
1 | GVSLLIAGHDEFNGFSL [PRE8] | 1.99 ± 0.18 | 2.18 ± 0.1 | 1.97 ± 0.1 | 2.07 ± 0.093
2 | NFLRLPASNILRRTTQR [YDL116W/NUP84] | 3.08 ± 0.27 |  | 3.25 ± 0.13 | 
3 | FNSVQKKSRSNLSQEND [YAR002W/NUP60] | 2.81 ± 0.09 | 2.85 ± 0.071 | 2.49 ± 0.1 | 3.12 ± 0.12
4 | AQQQQLSNYPQQIQEQV [YGR119C/NUP57] | 2.82 ± 0.059 | 3.09 ± 0.058 | 2.71 ± 0.046 | 3.02 ± 0.044
5 | PFDMGGYFIINGSEKVL [RPB2] | 2.83 ± 0.14 | 2.28 ± 0.14 | 2.56 ± 0.27 | 2.33 ± 0.16
6 | SNRLLMDVDQFDFLDDG [YJR042W/NUP85] | 1.49 ± 0.097 | 1.37 ± 0.15 | 1.69 ± 0.27 | 1.23 ± 0.099
7 | ELKKKRKIKRLEKFLQG [SRP72] | 3.22 ± 0.073 | 3.24 ± 0.091 | 3.19 ± 0.09 | 3.25 ± 0.049
8 | DNNITEMLEENFPEASK [YCG1] | 2.48 ± 0.097 | 2.22 ± 0.11 | 2.59 ± 0.09 | 2.74 ± 0.052
9 | RSSEEINSDNQNIILRS [RPN3] | 3.03 ± 0.26 | 3.24 ± 0.19 |  | 3.2 ± 0.19
10 | QNNSKHTEDTVNESRNS [SRB5] |  | 2.73 ± 0.1 | 2.95 ± 0.09 | 2.98 ± 0.11
11 | SQISKAEMEADSLASEL [SMC4] | 2.75 ± 0.08 | 3.31 ± 0.16 | 3.27 ± 0.071 | 2.82 ± 0.16
12 | NNSSITLRCSVVEACGN [YCS4] | 1.78 ± 0.064 | 1.23 ± 0.056 | 1.13 ± 0.14 | 1.25 ± 0.041
13 | LLSSESNIPTLIEKLQG [YDL116W/NUP84] | 2.42 ± 0.091 | 3.01 ± 0.11 | 2.6 ± 0.047 | 3.07 ± 0.072
14 | LRPRKDSKDGTTLNIKV [SMB1] |  |  | 3.18 ± 0.12 | 
15 | ATSTKVSVEGVNVEKFN [RPL6A] | 2.88 ± 0.11 | 3.4 ± 0.11 | 3.31 ± 0.059 | 3.16 ± 0.1
16 | KFSDIIQGISKMYSDDT [BRN1] | 2.93 ± 0.062 | 2.71 ± 0.066 | 2.14 ± 0.08 | 2.3 ± 0.085
17 | LQGVTYPVLRKLYKKIA [YIL149C/MLP2] | 1.94 ± 0.093 | 1.79 ± 0.056 | 1.55 ± 0.14 | 1.83 ± 0.055
18 | DDESPRFVMPNQLLAAL [RRP6] | 1.98 ± 0.048 | 2.02 ± 0.052 | 1.88 ± 0.069 | 2.18 ± 0.042
19 | VLDIVPGSSITETEVER [SRB4] | 3.04 ± 0.13 | 2.88 ± 0.15 | 2.57 ± 0.18 | 2.83 ± 0.12
20 | IIRLLPINLENNDGSYG [SRB8] | 1.7 ± 0.064 | 1.24 ± 0.048 | 1.21 ± 0.077 | 1.39 ± 0.048
21 | SKVYFNNQSKEKADYED [RPN12] | 2.56 ± 0.076 | 2.64 ± 0.067 | 2.67 ± 0.098 | 2.48 ± 0.054
22 | NNNSNNIMSASGGLFGN [YGL172W/NUP49] | 2.97 ± 0.041 | 3.02 ± 0.041 | 3.13 ± 0.051 | 3.2 ± 0.035
23 | IDTDLFGAPNNPNSTAI [YGL172W/NUP49] | 2.8 ± 0.075 | 2.78 ± 0.063 | 2.91 ± 0.053 | 2.59 ± 0.053
24 | VKDFTSLGFNEVFSRPE [RPO21] |  | 2.56 ± 0.27 | 2.96 ± 0.27 | 2.9 ± 0.19
25 | YKPGSITLENITRLCQT [MED1] | 2.14 ± 0.044 | 2.23 ± 0.041 | 1.79 ± 0.046 | 1.99 ± 0.032
26 | LAREVPQQSGKKLLINK [DPB4] | 1.43 ± 0.092 | 2.06 ± 0.063 | 1.86 ± 0.1 | 1.58 ± 0.067
27 | VLSTEEILNIFKHISVK [RPO21] | 2.68 ± 0.13 | 3.44 ± 0.24 | 2.94 ± 0.12 | 1.6 ± 0.17

Row | Sequence | protein stability index (doa10∆) | protein stability index (pdr5∆) | protein stability index (san1∆) | protein stability index (ubr1∆)
28 | HYKQQIAVLIELLEERF [YCS4] | 2.01 ± 0.07 | 2.12 ± 0.065 | 2.48 ± 0.1 | 2.34 ± 0.072
29 | ASDLVLIVIDVVEGVTF [SNU114] | 1.33 ± 0.041 | 1.58 ± 0.059 | 2.07 ± 0.1 | 2.38 ± 0.047
30 | HPIMETIVNDSNYDWLF [RPN9] | 2.42 ± 0.058 | 2.34 ± 0.057 | 2.16 ± 0.085 | 2.66 ± 0.052
31 | AIKYRPTSVKLLKTTVP [POP3] | 2.23 ± 0.037 | 2.3 ± 0.039 | 2.31 ± 0.057 | 2.14 ± 0.033
32 | PPNNARRTYNTLEDKFL [ISW2] | 2.09 ± 0.04 | 2.02 ± 0.045 | 1.6 ± 0.11 | 1.95 ± 0.035
33 | RDDLFVRNLQGIQEVVH [NUT1] | 2.9 ± 0.09 | 3.2 ± 0.094 | 3.15 ± 0.073 | 3.23 ± 0.068
34 | KQLTLLRSKLFQFKLLQ [SMC4] | 1.93 ± 0.051 | 1.88 ± 0.048 | 1.69 ± 0.064 | 2.34 ± 0.038
35 | TLKYICAECSSKLSLSR [RPC10] | 2.46 ± 0.063 | 2.51 ± 0.069 | 2.7 ± 0.057 | 2.65 ± 0.056
36 | EFFNTLRKSRETVKLPR [RRI2] |  | 3.55 ± 0.18 | 3.02 ± 0.15 | 
37 | SSKLQLTKKYSFKIFVD [RRP42] | 2.19 ± 0.09 | 1.76 ± 0.062 | 1.76 ± 0.086 | 2.06 ± 0.044
38 | WDGVIPTPAIIKPKPLW [RPO21] | 1.88 ± 0.099 | 2.08 ± 0.092 | 2.41 ± 0.096 | 2.06 ± 0.12
39 | DDLKKDHIAIDWEDEEK [DSN1] | 2.73 ± 0.083 | 3.06 ± 0.072 | 3.07 ± 0.065 | 2.82 ± 0.063
40 | TMMANFEEWIKMATDNK [BRN1] | 3.19 ± 0.12 | 3.16 ± 0.11 | 3.08 ± 0.1 | 3.35 ± 0.1
41 | RGFNNQIMQLKKICNHP [SNF2] | 3.13 ± 0.066 | 3.15 ± 0.067 | 3.07 ± 0.049 | 3.2 ± 0.06
42 | KTKKLNLSAFKIVYIAP [BRR2] | 2.13 ± 0.056 | 2.1 ± 0.052 | 2.19 ± 0.069 | 2.27 ± 0.052
43 | TLRTISFKGSPNERKAK [SNF2] | 3.19 ± 0.17 |  | 2.74 ± 0.15 | 2.51 ± 0.13
44 | VSIRQNQYKLVFYQVTP [RPL22B] | 1.95 ± 0.087 | 1.69 ± 0.051 | 2.15 ± 0.06 | 1.88 ± 0.064
45 | TKSETKQENETMQPPYI [MED11] | 2.95 ± 0.051 | 2.85 ± 0.059 | 2.7 ± 0.1 | 2.96 ± 0.042
46 | KQENETMQPPYIQERLK [MED11] | 2.88 ± 0.055 | 3.06 ± 0.054 | 3.19 ± 0.04 | 3.02 ± 0.033
47 | LLKPFHVKVNDKKEMTI [SIR3] | 3.05 ± 0.18 | 2.58 ± 0.15 | 2.21 ± 0.14 | 2.68 ± 0.14
48 | HKQVYPLRMETIPILES [DSN1] | 1.73 ± 0.049 | 2.37 ± 0.05 | 2.24 ± 0.066 | 2.14 ± 0.038
49 | IKFKKCDGDTVWDKFAV [SSN2] | 3 ± 0.052 | 3.03 ± 0.048 | 2.87 ± 0.046 | 2.75 ± 0.046
50 | GFALNSDIVFIHQNAGR [BRR2] | 3.03 ± 0.12 | 2.09 ± 0.09 | 1.78 ± 0.2 | 2.02 ± 0.057
51 | RSQISEKDAKINKLMEK [SIR4] | 3.13 ± 0.087 | 3.12 ± 0.11 | 3.17 ± 0.062 | 2.27 ± 0.047
52 | PPQDAEGWFYKRAASVA [RPS19A] | 2.9 ± 0.27 | 1.42 ± 0.11 | 1.53 ± 0.14 | 1.56 ± 0.11
53 | QKKVPDKLLDPTTVSYI [SCL1] | 2.9 ± 0.05 | 2.28 ± 0.047 | 2.4 ± 0.056 | 2.67 ± 0.044

— the supplement of paper PMC9732359
